# Assay results: patent publication US20230039694A1, “H[…] REDUCTASE AND USES THEREOF” (Southwest University, priority 2019, published 2023)
# B1: HAR: Hyoscyamine aldehyde reductase from Atropa belladonna, amino acid sequence SEQ ID NO. 4, encoded by SEQ ID NO. 3 (protein, listed as Atropa belladonna)
# chain: MDSSGVLSPFTFSRRATGEEDVRLKVLYCGICHSDLGCIKNEWGWCSYPLVPGHEIVGIATEVGSKVTKFKVGDRVGVGCMVGSCGTCQNCTQNQESYCPEVIMTCASAYPDGTPTYGGFSNQMVANEKFVIRIPNSLPLDAAAPLLCAGSTVYSAMKFYGLCSQGLHLGVVGLGGLGHVAVKFAKAFGMKVTVISTSLGKKEEAINQLGADSFLINTDTEQMQGAMEVMDGIIDTVSALHPIEPLLGLLKSHQGKLIIVGLPNKQPELPVFSLINGRKMIGGSAVGGVKETQEMIDFAAEHNITADIEIVPMDYVNTAMERLEKGDVKFRFVIDVENTLVAAQT
# Key:
# [1] = Verification on enzyme activity of HAR: hyoscyamine aldehyde reduction reaction, product identified by high-resolution mass spectrometry; format: biochemical, Atropa belladonna; settings: phosphate buffer pH 6.4, 0.2 mM NADPH-4Na, 1 mM hyoscyamine aldehyde, 30 μg HAR protein, 1 h at 37.5° C.
# Experimental: The constructed pET28a-HAR plasmid was converted to a prokaryotic expression stain BL21, and a positive clone was screened with PCR to obtain prokaryotic expression engineering bacteria BL21-pET28a-HAR. 100 μL of BL21-pET28a-HAR bacterial liquid was inoculated to a 30 mL of LB liquid medium containing 100 mg/L kanamycin for overnight culture at 37° C. and 200 rpm. Then, a product was respectively inoculated to 400 mL of LB liquid medium according to a ratio of 1 to 50 for activated culture at 37° C. and 200 rpm, and when OD600 was about 0.6, IPTG was added until a final concentration reached 1 mM. Culture was continued for 6 h at 37° C. and 200 rpm. The harvested bacterial liquid was subjected to centrifugation at 8000 rpm, and a supernatant was removed. Then precipitate bacteria were resuspended with a phosphate buffer, subjected to ultrasonication and then purified with a Ni-NTA filler from GE Company to obtain an HAR protein.
# A hyoscyamine aldehyde reduction reaction system catalyzed by the HAR was as follows: a phosphate buffer (pH 6.4), 0.2 mM NADPH-4Na, 1 mM hyoscyamine aldehyde and 30 μg of HAR protein were incubated for 1 h at 37.5° C., and a reaction product was identified using a high-resolution mass spectrometer. […]
# [2] = test system: Atropa belladonna hairy roots; test: Content of hyoscyamine in transgenic Atropa belladonna hairy roots with HAR over-expression (HPLC); format: cell-based
# Text: In order to study the effect of an HAR gene on tropane alkaloids in Atropa belladonna, a pericycle-specific high-expression vector PMT promoter::HAR was constructed, and an original plasmid was pBI121. Firstly, a 35S promoter on the original plasmid pBI121 was substituted with an AbPMT promoter by using digestion sites HindIII and Xba I; and the AbPMT promoter was subjected to PCR amplification with Atropa belladonna cDNA as a template and sequences as shown in SEQ ID NO. 7 and SEQ ID NO. 8 as primers. Then a GUS gene on the original plasmid was substituted with the HAR gene by using digestion sites BamHI and SacI; and the HAR gene was subjected to PCR amplification with Atropa belladonna cDNA as a template and sequences as shown in SEQ ID NO. 9 and SEQ ID NO. 10 as primers to obtain an HAR plant over-expression vector PMT promoter:: HAR. The primer sequences used were as follows: […]
# The hairy roots were harvested after being subjected to shaking culture for 30 d in an MS liquid medium, and a material was freeze-dried to a constant weight in a freeze dryer. […] The alkaloids were dissolved with 1 mL of liquid chromatography grade methanol; the solution was filtered with a filter membrane of 0.22 μm; the content of the alkaloids was determined with HPLC; and a result was an average of three repeated experiments, where an error bar indicated a standard deviation. […]
molecule,measurement,setting,value
B1,product of the hyoscyamine aldehyde reduction reaction catalyzed by the HAR,[1],a product of the hyoscyamine aldehyde reduction reaction catalyzed by the HAR was hyoscyamine
same,content of hyoscyamine relative to non-transgenic Atropa belladonna hairy roots,"[2]; AbHAR over-expression hairy roots versus non-transgenic hairy roots, same period",1.83-2.58 times
same,average content of hyoscyamine in hairy roots,"[2]; AbHAR over-expression hairy roots, 30 d shaking culture in MS liquid medium, ordinary hairy roots 2.32 mg/g DW",4.24-5.98 mg/g DW
